Laboratory results from IntAct's records for PubMed 35512704.

B1: Speckle-type POZ protein (Homo sapiens), O43791 (parent)
chain: MSRVPSPPPPAEMSSGPVAESWCYTQIKVVKFSYMWTINNFSFCREEMGEVIKSSTFSSGANDKLKWCLRVNPKGLDEESKDYLSLYLLLVSCPKSEVRAKFKFSILNAKGEETKAMESQRAYRFVQGKDWGFKKFIRRDFLLDEANGLLPDDKLTLFCEVSVVQDSVNISGQNTMNMVKVPECRLADELGGLWENSRFTDCCLCVAGQEFQAHKAILAARSPVFSAMFEHEMEESKKNRVEINDVEPEVFKEMMCFIYTGKAPNLDKMADDLLAAADKYALERLKVMCEDALCSNLSVENAAEILILADLHSADQLKTQAVDFINYHASDVLETSGWKSMVVSHPHLVAEAYRSLASAQCPFLGPPRKRLKQS
partner: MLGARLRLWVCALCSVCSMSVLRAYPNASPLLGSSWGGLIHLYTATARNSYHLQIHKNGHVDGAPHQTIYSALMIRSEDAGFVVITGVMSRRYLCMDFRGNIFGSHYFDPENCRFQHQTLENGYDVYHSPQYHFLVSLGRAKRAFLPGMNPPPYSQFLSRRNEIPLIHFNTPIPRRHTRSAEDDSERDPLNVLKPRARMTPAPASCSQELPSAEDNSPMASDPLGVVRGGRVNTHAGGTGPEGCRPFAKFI
B2: Speckle-type POZ protein (Homo sapiens), O43791 (parent)
chain: B1 chain
partner: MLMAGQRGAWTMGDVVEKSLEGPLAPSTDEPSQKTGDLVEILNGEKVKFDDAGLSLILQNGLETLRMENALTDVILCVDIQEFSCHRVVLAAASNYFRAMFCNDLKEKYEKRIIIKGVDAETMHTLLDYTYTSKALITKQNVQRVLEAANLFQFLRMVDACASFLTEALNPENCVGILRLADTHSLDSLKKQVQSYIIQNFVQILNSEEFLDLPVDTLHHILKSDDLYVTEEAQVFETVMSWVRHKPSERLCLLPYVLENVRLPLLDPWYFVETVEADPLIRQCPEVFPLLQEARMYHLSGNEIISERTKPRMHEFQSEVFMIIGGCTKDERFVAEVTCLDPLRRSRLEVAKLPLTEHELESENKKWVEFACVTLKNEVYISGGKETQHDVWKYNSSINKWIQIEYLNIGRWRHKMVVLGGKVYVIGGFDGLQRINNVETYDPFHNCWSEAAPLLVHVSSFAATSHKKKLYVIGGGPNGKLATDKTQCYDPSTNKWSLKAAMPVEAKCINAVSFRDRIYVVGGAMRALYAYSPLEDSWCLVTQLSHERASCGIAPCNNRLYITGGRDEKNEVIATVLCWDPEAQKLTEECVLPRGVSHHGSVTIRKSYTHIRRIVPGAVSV
B3: Speckle-type POZ protein (Homo sapiens), O43791 (parent)
chain: B1 chain
partner: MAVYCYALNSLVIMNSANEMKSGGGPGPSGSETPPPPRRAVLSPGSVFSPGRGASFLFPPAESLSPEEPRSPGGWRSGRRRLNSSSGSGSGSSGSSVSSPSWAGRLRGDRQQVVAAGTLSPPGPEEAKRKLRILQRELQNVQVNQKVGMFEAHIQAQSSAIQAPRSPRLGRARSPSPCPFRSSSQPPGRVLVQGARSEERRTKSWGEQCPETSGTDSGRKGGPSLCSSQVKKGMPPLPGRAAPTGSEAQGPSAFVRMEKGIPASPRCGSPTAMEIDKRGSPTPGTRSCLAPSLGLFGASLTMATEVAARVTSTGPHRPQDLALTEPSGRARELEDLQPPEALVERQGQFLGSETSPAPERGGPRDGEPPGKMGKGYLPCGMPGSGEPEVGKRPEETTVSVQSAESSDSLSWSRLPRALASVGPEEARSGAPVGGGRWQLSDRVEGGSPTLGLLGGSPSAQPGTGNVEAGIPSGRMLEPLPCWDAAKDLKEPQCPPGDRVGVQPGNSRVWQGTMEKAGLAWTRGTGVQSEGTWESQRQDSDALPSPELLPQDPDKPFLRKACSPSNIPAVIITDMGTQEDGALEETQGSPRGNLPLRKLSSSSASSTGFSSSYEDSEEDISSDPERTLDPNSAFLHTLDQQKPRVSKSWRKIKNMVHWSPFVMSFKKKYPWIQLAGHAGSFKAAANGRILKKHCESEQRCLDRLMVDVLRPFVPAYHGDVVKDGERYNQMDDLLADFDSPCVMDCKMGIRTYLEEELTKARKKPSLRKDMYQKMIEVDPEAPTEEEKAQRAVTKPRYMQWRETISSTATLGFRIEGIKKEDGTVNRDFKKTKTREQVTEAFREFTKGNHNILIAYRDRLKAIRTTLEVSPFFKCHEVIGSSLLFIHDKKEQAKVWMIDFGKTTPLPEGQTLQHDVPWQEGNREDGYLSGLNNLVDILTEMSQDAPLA
B4: Speckle-type POZ protein (Homo sapiens), O43791 (parent)
chain: B1 chain
partner: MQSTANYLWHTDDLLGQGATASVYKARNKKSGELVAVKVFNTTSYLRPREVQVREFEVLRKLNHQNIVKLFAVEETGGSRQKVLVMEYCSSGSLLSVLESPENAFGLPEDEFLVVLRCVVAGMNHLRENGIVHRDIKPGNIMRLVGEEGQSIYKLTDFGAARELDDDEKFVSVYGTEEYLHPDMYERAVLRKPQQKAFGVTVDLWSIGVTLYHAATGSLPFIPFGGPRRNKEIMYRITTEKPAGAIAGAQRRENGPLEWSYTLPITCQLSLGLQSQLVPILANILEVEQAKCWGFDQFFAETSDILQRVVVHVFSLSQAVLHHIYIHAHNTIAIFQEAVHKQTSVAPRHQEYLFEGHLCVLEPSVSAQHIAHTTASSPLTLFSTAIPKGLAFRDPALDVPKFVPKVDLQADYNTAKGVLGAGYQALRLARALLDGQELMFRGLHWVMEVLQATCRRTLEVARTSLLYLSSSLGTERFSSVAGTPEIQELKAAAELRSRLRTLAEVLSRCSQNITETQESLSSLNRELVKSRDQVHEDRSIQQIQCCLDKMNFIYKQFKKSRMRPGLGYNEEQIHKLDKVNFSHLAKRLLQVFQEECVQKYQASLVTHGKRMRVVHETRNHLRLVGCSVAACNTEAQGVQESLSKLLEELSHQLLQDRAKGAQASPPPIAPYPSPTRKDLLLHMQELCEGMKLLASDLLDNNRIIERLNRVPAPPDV
B5: Speckle-type POZ protein (Homo sapiens), O43791 (parent)
chain: B1 chain
partner: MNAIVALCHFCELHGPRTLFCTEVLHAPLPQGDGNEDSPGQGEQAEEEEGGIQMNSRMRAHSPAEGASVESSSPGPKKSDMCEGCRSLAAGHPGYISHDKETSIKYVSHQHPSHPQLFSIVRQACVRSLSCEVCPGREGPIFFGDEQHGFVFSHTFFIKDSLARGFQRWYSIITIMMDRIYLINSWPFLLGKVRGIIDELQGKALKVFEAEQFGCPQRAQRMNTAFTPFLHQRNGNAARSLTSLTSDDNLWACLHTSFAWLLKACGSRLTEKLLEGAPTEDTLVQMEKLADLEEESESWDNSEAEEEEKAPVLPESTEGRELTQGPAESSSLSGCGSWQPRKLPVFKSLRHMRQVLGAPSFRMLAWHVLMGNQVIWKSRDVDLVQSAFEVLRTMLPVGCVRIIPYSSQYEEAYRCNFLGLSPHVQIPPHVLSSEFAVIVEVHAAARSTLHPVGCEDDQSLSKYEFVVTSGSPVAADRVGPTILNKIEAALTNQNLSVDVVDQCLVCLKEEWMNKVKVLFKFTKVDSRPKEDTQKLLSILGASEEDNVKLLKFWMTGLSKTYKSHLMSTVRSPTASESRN
B6: Speckle-type POZ protein (Homo sapiens), O43791 (parent)
chain: B1 chain
partner: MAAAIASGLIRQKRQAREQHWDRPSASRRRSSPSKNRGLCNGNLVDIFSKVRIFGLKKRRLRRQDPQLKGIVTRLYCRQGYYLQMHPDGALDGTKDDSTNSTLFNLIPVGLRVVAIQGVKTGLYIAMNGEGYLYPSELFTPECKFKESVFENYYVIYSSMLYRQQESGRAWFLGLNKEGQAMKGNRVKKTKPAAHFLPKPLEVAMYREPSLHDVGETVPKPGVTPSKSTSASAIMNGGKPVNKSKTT

Variants of: B1
Details: with fgf23_human FGF23, Q9GZV9

Row | Variant | effect of a mutation on the interaction
1 | Y87C | with no effect

Variants of: B1
Details: with fgf23_human FGF23, Q9GZV9
Remark: another data set of the same source

Row | Variant | effect of a mutation on the interaction
2 | F102C | with no effect

Variants of: B1
Details: with fgf23_human FGF23, Q9GZV9
Remark: another data set of the same source

Row | Variant | effect of a mutation on the interaction
3 | F133V | with no effect

Variants of: B1
Details: with fgf23_human FGF23, Q9GZV9
Remark: another data set of the same source

Row | Variant | effect of a mutation on the interaction
4 | F133L | with no effect

Variants of: B2
Details: with klhl6_human KLHL6, Q8WZ60

Row | Variant | effect of a mutation on the interaction
5 | Y87C | with no effect

Variants of: B2
Details: with klhl6_human KLHL6, Q8WZ60
Remark: another data set of the same source

Row | Variant | effect of a mutation on the interaction
6 | F133V | with no effect

Variants of: B2
Details: with klhl6_human KLHL6, Q8WZ60
Remark: another data set of the same source

Row | Variant | effect of a mutation on the interaction
7 | F133L | with no effect

Variants of: B2
Details: with klhl6_human KLHL6, Q8WZ60
Remark: another data set of the same source

Row | Variant | effect of a mutation on the interaction
8 | F102C | with no effect

Variants of: B3
Details: with ip3kb_human ITPKB

Row | Variant | effect of a mutation on the interaction
9 | F102C | with no effect

Variants of: B3
Details: with ip3kb_human ITPKB
Remark: another data set of the same source

Row | Variant | effect of a mutation on the interaction
10 | F133V | with no effect

Variants of: B3
Details: with ip3kb_human ITPKB
Remark: another data set of the same source

Row | Variant | effect of a mutation on the interaction
11 | F133L | with no effect

Variants of: B3
Details: with ip3kb_human ITPKB
Remark: another data set of the same source

Row | Variant | effect of a mutation on the interaction
12 | Y87C | with no effect

Variants of: B4
Details: with ikke_human IKBKE

Row | Variant | effect of a mutation on the interaction
13 | Y87C | with no effect

Variants of: B4
Details: with ikke_human IKBKE
Remark: another data set of the same source

Row | Variant | effect of a mutation on the interaction
14 | F102C | with no effect

Variants of: B4
Details: with ikke_human IKBKE
Remark: another data set of the same source

Row | Variant | effect of a mutation on the interaction
15 | F133L | with no effect

Variants of: B4
Details: with ikke_human IKBKE
Remark: another data set of the same source

Row | Variant | effect of a mutation on the interaction
16 | F133V | with no effect

Variants of: B5
Details: with flcn_human FLCN

Row | Variant | effect of a mutation on the interaction
17 | Y87C | with no effect

Variants of: B5
Details: with flcn_human FLCN
Remark: another data set of the same source

Row | Variant | effect of a mutation on the interaction
18 | F102C | with no effect

Variants of: B5
Details: with flcn_human FLCN
Remark: another data set of the same source

Row | Variant | effect of a mutation on the interaction
19 | F133V | with no effect

Variants of: B5
Details: with flcn_human FLCN
Remark: another data set of the same source

Row | Variant | effect of a mutation on the interaction
20 | F133L | with no effect

Variants of: B6
Details: with fgf14_human FGF14, Q92915

Row | Variant | effect of a mutation on the interaction
21 | Y87C | with no effect

Variants of: B6
Details: with fgf14_human FGF14, Q92915
Remark: another data set of the same source

Row | Variant | effect of a mutation on the interaction
22 | F133L | with no effect

Variants of: B6
Details: with fgf14_human FGF14, Q92915
Remark: another data set of the same source

Row | Variant | effect of a mutation on the interaction
23 | F133V | with no effect

Variants of: B6
Details: with fgf14_human FGF14, Q92915
Remark: another data set of the same source

Row | Variant | effect of a mutation on the interaction
24 | F102C | with no effect
